Experimental data as given in patent US20220002427A1 (ENGMAB SARL, published 2022).
“And” between values parts separate entries of the source, which are not always exact repeats. Identical values can stand only once.

Assays:
human BCMA on cells [1] = molecular target: T1, human BCMA on cells (human, UniProt Q02223 1-184); experiment: cell-based or functional assay
T1 sequence (looked up): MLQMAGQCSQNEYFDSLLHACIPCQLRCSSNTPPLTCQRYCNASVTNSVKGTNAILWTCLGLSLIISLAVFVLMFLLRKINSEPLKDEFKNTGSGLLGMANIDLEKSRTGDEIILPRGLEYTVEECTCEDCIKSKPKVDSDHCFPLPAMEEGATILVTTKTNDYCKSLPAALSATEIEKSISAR

human BCMA on cells [2] = molecular target: T1, human BCMA on cells; experiment: cell-based or functional assay; remark: listed apart in the source
human BCMA on cells [3] = molecular target: T1, human BCMA on cells; experiment: flow cytometry on RPMI-8226 multiple myeloma cells, PE anti-human Fc F(ab')2 detection; estimated EC50
Procedure: (§1) Briefly, cultured cells are harvested, counted and cell viability was evaluated using ViCell. Viable cells are then adjusted to 2×10⁶ cells per ml in BSA-containing FACS Stain Buffer (BD Biosciences). 100 μl of this cell suspension were further aliquoted per well into a round-bottom 96-well plate and incubated with 30 μl of the anti-BCMA antibodies or corresponding IgG control for 30 min at 4° c. All Anti-BCMA/anti-CD3 TCB antibodies (and TCB controls) were titrated and analyzed in final concentration range between 1-300 nM. Cells were then centrifuged (5 min, 350×g), washed with 120 μl/well FACS Stain Buffer (BD Biosciences), resuspended and incubated for an additional 30 min at 4° C. with fluorochrome-conjugated PE-conjugated AffiniPure F(ab′)2 Fragment goat anti-human IgG Fc Fragment Specific (Jackson Immuno Research Lab; 109-116-170). Cells were then washed twice with Stain Buffer (BD Biosciences), fixed using 100 ul BD Fixation buffer per well (#BD Biosciences, 554655) at 4° C. for 20 min, resuspended in 120 μl FACS buffer and analyzed using BD FACS CantoII.

human BCMA on cells [4] = molecular target: T1, human BCMA on cells; experiment: flow cytometry on H929 multiple myeloma cells, PE anti-human Fc F(ab')2 detection; estimated EC50
Procedure: as §1

human BCMA on cells [5] = molecular target: T1, human BCMA on cells; experiment: cell-based or functional assay; remark: listed apart in the source
human BCMA on cells [6] = molecular target: T1, human BCMA on cells; experiment: cell-based or functional assay; remark: listed apart in the source
human BCMA on cells [7] = molecular target: T1, human BCMA on cells; experiment: cell-based or functional assay; remark: listed apart in the source
human BCMA on cells [8] = molecular target: T1, human BCMA on cells; experiment: flow cytometry on L363 multiple myeloma cells, PE anti-human Fc F(ab')2 detection; estimated EC50
Procedure: as §1

B1: 21-TCBcv (bispecific antibody, human IgG1, kappa, L234A L235A)
heavy 1: not shown
heavy 2: EVQLLESGGGLVQPGGSLRLSCAASGFTFSDNAMGWVRQAPGKGLEWVSAISGPGSSTYYADSVKGRFTISRDNSKNTLYLQMNSLRAEDTAVYYCAKVLGWFDYWGQGTLVTVSSASTKGPSVFPLAPSSKSTSGGTAALGCLVEDYFPEPVTVSWNSGALTSGVHTFPAVLQSSGLYSLSSVVTVPSSSLGTQTYICNVNHKPSNTKVDEKVEPKSCDKTHTCPPCPAPEAAGGPSVFLFPPKPKDTLMISRTPEVTCVVVDVSHEDPEVKFNWYVDGVEVHNAKTKPREEQYNSTYRVVSVLTVLHQDWLNGKEYKCKVSNKALGAPIEKTISKAKGQPREPQVCTLPPSRDELTKNQVSLSCAVKGFYPSDIAVEWESNGQPENNYKTTPPVLDSDGSFFLVSKLTVDKSRWQQGNVFSCSVMHEALHNHYTQKSLSLSPGK
light 1: EIVLTQSPGTLSLSPGERATLSCRASQSVSEYYLAWYQQKPGQAPRLLIEHASTRATGIPDRFSGSGSGTDFTLTISRLEPEDFAVYYCQQYGYPPDFTFGQGTKVEIKRTVAAPSVFIFPPSDRKLKSGTASVVCLLNNFYPREAKVQWKVDNALQSGNSQESVTEQDSKDSTYSLSSTLTLSKADYEKHKVYACEVTHQGLSSPVTKSFNRGEC
light 2: EVQLLESGGGLVQPGGSLRLSCAASGFTFSTYAMNWVRQAPGKGLEWVSRIRSKYNNYATYYADSVKGRFTISRDDSKNTLYLQMNSLRAEDTAVYYCVRHGNFGNSYVSWFAYWGQGTLVTVSSASVAAPSVFIFPPSDEQLKSGTASVVCLLNNFYPREAKVQWKVDNALQSGNSQESVTEQDSKDSTYSLSSTLTLSKADYEKHKVYACEVTHQGLSSPVTKSFNRGEC
notes: also called anti-BCMA/anti-CD3 T cell bispecific antibody of Mab21
For B1, the “EC50 of redirected T-cell killing of RPMI-8226 cells (LDH release), Donor 2” value (human BCMA on cells [1]) was 0.0413 nM, the “EC50 of redirected T-cell killing of RPMI-8226 cells (LDH release), Donor 3” value (human BCMA on cells [1]) was 0.0088 nM and the “EC50 of redirected T-cell killing of RPMI-8226 cells (LDH release), Donor 4” value (human BCMA on cells [1]) was 0.004 nM. For the same binder, the “EC50 of redirected T-cell killing of RPMI-8226 cells (LDH release), Donor 5” value (human BCMA on cells [1]) was 0.0084 nM, the “EC50 of redirected T-cell killing of H929 cells (LDH release), Donor 1” value (human BCMA on cells [2]) was 0.0971 nM and the “EC50 of redirected T-cell killing of H929 cells (LDH release), Donor 3” value (human BCMA on cells [2]) was 0.0421 nM. The “EC50 of redirected T-cell killing of H929 cells (LDH release), Donor 4” value (human BCMA on cells [2]) was 0.0539 nM, the “EC50 of redirected T-cell killing of H929 cells (LDH release), Donor 5” value (human BCMA on cells [2]) was 0.0387 nM and the EC50 (human BCMA on cells [3]) was 6.8 nM and 0.982 µg/mL. The EC50 (human BCMA on cells [4]) was 11 nM and 1.59 µg/mL, the “EC50 of redirected T-cell killing of L363 cells (LDH release), Donor 1” value (human BCMA on cells [5]) was 0.0836 nM and the “EC50 of redirected T-cell killing of L363 cells (LDH release), Donor 2” value (human BCMA on cells [5]) was 0.0384 nM. The “EC50 of redirected T-cell killing of L363 cells (LDH release), Donor 3” value (human BCMA on cells [5]) was 0.0189 nM, the “EC50 of redirected T-cell killing of L363 cells (LDH release), Donor 4” value (human BCMA on cells [5]) was 0.0191 nM and the “EC50 of redirected T-cell killing of L363 cells (LDH release), Donor 5” value (human BCMA on cells [5]) was 0.0464 nM.

B2: 22-TCBcv (bispecific antibody, human IgG1, kappa, L234A L235A)
heavy 1: not shown
heavy 2: EVQLLESGGGLVQPGGSLRLSCAASGFTFSDNAMGWVRQAPGKGLEWVSAISGPGSSTYYADSVKGRFTISRDNSKNTLYLQMNSLRAEDTAVYYCAKVLGWFDYWGQGTLVTVSSASTKGPSVFPLAPSSKSTSGGTAALGCLVEDYFPEPVTVSWNSGALTSGVHTFPAVLQSSGLYSLSSVVTVPSSSLGTQTYICNVNHKPSNTKVDEKVEPKSCDKTHTCPPCPAPEAAGGPSVFLFPPKPKDTLMISRTPEVTCVVVDVSHEDPEVKFNWYVDGVEVHNAKTKPREEQYNSTYRVVSVLTVLHQDWLNGKEYKCKVSNKALGAPIEKTISKAKGQPREPQVCTLPPSRDELTKNQVSLSCAVKGFYPSDIAVEWESNGQPENNYKTTPPVLDSDGSFFLVSKLTVDKSRWQQGNVFSCSVMHEALHNHYTQKSLSLSPGK
light 1: EIVLTQSPGTLSLSPGERATLSCRASQSVSSYYLAWYQQKPGQAPRLLISGAGSRATGIPDRFSGSGSGTDFTLTISRLEPEDFAVYYCQQYGYPPDFTFGQGTKVEIKRTVAAPSVFIFPPSDRKLKSGTASVVCLLNNFYPREAKVQWKVDNALQSGNSQESVTEQDSKDSTYSLSSTLTLSKADYEKHKVYACEVTHQGLSSPVTKSFNRGEC
light 2: EVQLLESGGGLVQPGGSLRLSCAASGFTFSTYAMNWVRQAPGKGLEWVSRIRSKYNNYATYYADSVKGRFTISRDDSKNTLYLQMNSLRAEDTAVYYCVRHGNFGNSYVSWFAYWGQGTLVTVSSASVAAPSVFIFPPSDEQLKSGTASVVCLLNNFYPREAKVQWKVDNALQSGNSQESVTEQDSKDSTYSLSSTLTLSKADYEKHKVYACEVTHQGLSSPVTKSFNRGEC
notes: also called 22-TCVcv; anti-BCMA/anti-CD3 T cell bispecific antibody of Mab22
With B2 the “Annexin-V positive JJN-3 cells (%) at 0.1 pM TCB, Experiment 2” value (human BCMA on cells [6]) was 14.8%, the “Annexin-V positive JJN-3 cells (%) at 1 pM TCB, Experiment 1” value (human BCMA on cells [6]) was 9.3% and the “Annexin-V positive JJN-3 cells (%) at 1 pM TCB, Experiment 2” value (human BCMA on cells [6]) was 15%. The “Annexin-V positive JJN-3 cells (%) at 10 pM TCB, Experiment 1” value (human BCMA on cells [6]) was 13.3%, the “Annexin-V positive JJN-3 cells (%) at 10 pM TCB, Experiment 2” value (human BCMA on cells [6]) was 15.9% and the “Annexin-V positive JJN-3 cells (%) at 100 pM TCB, Experiment 1” value (human BCMA on cells [6]) was 12.5%. For the same binder, the “Annexin-V positive JJN-3 cells (%) at 100 pM TCB, Experiment 2” value (human BCMA on cells [6]) was 18.4%, the “Annexin-V positive JJN-3 cells (%) at 1000 pM TCB, Experiment 1” value (human BCMA on cells [6]) was 26.1% and the “Annexin-V positive JJN-3 cells (%) at 1000 pM TCB, Experiment 2” value (human BCMA on cells [6]) was 27%. For the same binder, the “Annexin-V positive JJN-3 cells (%) at 10000 pM TCB, Experiment 1” value (human BCMA on cells [6]) was 22.9%, the “Annexin-V positive JJN-3 cells (%) at 10000 pM TCB, Experiment 2” value (human BCMA on cells [6]) was 29.7% and the “EC50 of redirected T-cell killing of RPMI-8226 cells (LDH release), Donor 2” value (human BCMA on cells [1]) was 0.0476 nM. For the same binder, the “EC50 of redirected T-cell killing of RPMI-8226 cells (LDH release), Donor 3” value (human BCMA on cells [1]) was 0.0076 nM, the “EC50 of redirected T-cell killing of RPMI-8226 cells (LDH release), Donor 4” value (human BCMA on cells [1]) was 0.0032 nM and the “EC50 of redirected T-cell killing of RPMI-8226 cells (LDH release), Donor 5” value (human BCMA on cells [1]) was 0.0055 nM. The “Lysis of JJN-3 cells (%) at 0.1 pM TCB, Experiment 2” value (human BCMA on cells [7]) was 36.5%, the “Lysis of JJN-3 cells (%) at 1 pM TCB, Experiment 1” value (human BCMA on cells [7]) was -4.29% and the “Lysis of JJN-3 cells (%) at 1 pM TCB, Experiment 2” value (human BCMA on cells [7]) was 24.4%. For the same binder, the “Lysis of JJN-3 cells (%) at 10 pM TCB, Experiment 1” value (human BCMA on cells [7]) was 73.6%, the “Lysis of JJN-3 cells (%) at 10 pM TCB, Experiment 2” value (human BCMA on cells [7]) was 41.7% and the “Lysis of JJN-3 cells (%) at 100 pM TCB, Experiment 1” value (human BCMA on cells [7]) was 56.3%. For the same binder, the “Lysis of JJN-3 cells (%) at 100 pM TCB, Experiment 2” value (human BCMA on cells [7]) was 53%, the “Lysis of JJN-3 cells (%) at 1000 pM TCB, Experiment 1” value (human BCMA on cells [7]) was 90.5% and the “Lysis of JJN-3 cells (%) at 1000 pM TCB, Experiment 2” value (human BCMA on cells [7]) was 94.1%. For the same binder, the “Lysis of JJN-3 cells (%) at 10000 pM TCB, Experiment 1” value (human BCMA on cells [7]) was 88%, the “Lysis of JJN-3 cells (%) at 10000 pM TCB, Experiment 2” value (human BCMA on cells [7]) was 91.2% and the “EC50 of redirected T-cell killing of H929 cells (LDH release), Donor 1” value (human BCMA on cells [2]) was 0.0532 nM. The “EC50 of redirected T-cell killing of H929 cells (LDH release), Donor 3” value (human BCMA on cells [2]) was 0.0422 nM, the “EC50 of redirected T-cell killing of H929 cells (LDH release), Donor 4” value (human BCMA on cells [2]) was 0.0232 nM and the “EC50 of redirected T-cell killing of H929 cells (LDH release), Donor 5” value (human BCMA on cells [2]) was 0.0289 nM. The EC50 (human BCMA on cells [8]) was 30 nM and 4.33 µg/mL, the EC50 (human BCMA on cells [4]) was 7.9 nM and 1.14 µg/mL and the “EC50 of redirected T-cell killing of L363 cells (LDH release), Donor 1” value (human BCMA on cells [5]) was 0.0975 nM. For the same binder, the “EC50 of redirected T-cell killing of L363 cells (LDH release), Donor 2” value (human BCMA on cells [5]) was 0.0277 nM, the “EC50 of redirected T-cell killing of L363 cells (LDH release), Donor 3” value (human BCMA on cells [5]) was 0.0165 nM and the “EC50 of redirected T-cell killing of L363 cells (LDH release), Donor 4” value (human BCMA on cells [5]) was 0.0146 nM. The “EC50 of redirected T-cell killing of L363 cells (LDH release), Donor 5” value (human BCMA on cells [5]) was 0.056 nM.
